{
  "source": "patent US20110070245",
  "data": [
    {"target": "IMP-1 (IGF2BP1) (Homo sapiens) (UniProt Q9NZI8)", "sequence (Q9NZI8 whole entry)": "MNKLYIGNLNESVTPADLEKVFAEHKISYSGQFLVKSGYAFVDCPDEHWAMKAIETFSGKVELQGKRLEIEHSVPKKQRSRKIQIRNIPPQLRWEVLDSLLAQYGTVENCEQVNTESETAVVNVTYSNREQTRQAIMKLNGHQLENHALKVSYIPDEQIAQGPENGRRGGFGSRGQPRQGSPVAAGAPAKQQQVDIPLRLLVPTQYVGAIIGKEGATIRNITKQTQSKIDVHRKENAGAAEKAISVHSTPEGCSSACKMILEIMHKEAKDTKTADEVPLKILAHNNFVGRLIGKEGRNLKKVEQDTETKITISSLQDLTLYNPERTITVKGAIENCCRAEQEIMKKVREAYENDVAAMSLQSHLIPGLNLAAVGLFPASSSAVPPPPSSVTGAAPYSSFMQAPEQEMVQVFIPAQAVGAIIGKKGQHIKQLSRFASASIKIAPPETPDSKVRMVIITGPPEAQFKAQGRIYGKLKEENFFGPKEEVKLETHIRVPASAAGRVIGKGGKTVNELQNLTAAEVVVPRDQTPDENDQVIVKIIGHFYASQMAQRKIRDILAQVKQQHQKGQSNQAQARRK", "assay": "pulldown", "conditions": "RIP-microarray, A549 cells", "values": [
      {"substance": "C20orf142 mRNA", "binding signal (fold IP/total RNA)": 3.21},
      {"substance": "LASP1 mRNA", "binding signal (fold IP/total RNA)": 2.66},
      {"substance": "L3MBTL3 mRNA", "binding signal (fold IP/total RNA)": 3.19},
      {"substance": "HMBS mRNA", "binding signal (fold IP/total RNA)": 2.48},
      {"substance": "PDF mRNA", "binding signal (fold IP/total RNA)": 4.18},
      {"substance": "RAN mRNA", "binding signal (fold IP/total RNA)": 81.9},
      {"substance": "MGC27277 mRNA", "binding signal (fold IP/total RNA)": 3.43},
      {"substance": "UBE2S mRNA", "binding signal (fold IP/total RNA)": 6.78},
      {"substance": "SYNJ2 mRNA", "binding signal (fold IP/total RNA)": 2.56},
      {"substance": "DDX1 mRNA", "binding signal (fold IP/total RNA)": 34.2},
      {"substance": "CRYAA mRNA", "binding signal (fold IP/total RNA)": 9.77},
      {"substance": "LPGAT1 mRNA", "binding signal (fold IP/total RNA)": 3.14},
      {"substance": "PTP4A1 mRNA", "binding signal (fold IP/total RNA)": 3},
      {"substance": "SYNGR3 mRNA", "binding signal (fold IP/total RNA)": 12.3},
      {"substance": "RNF20 mRNA", "binding signal (fold IP/total RNA)": 2.01},
      {"substance": "C17orf39 mRNA", "binding signal (fold IP/total RNA)": 2.57},
      {"substance": "YTHDF1 mRNA", "binding signal (fold IP/total RNA)": 7.99},
      {"substance": "AMIGO2 mRNA", "binding signal (fold IP/total RNA)": 5.65},
      {"substance": "CPSF6 mRNA", "binding signal (fold IP/total RNA)": 2.24}
    ]},
    {"target": "IMP-1 (IGF2BP1) (Homo sapiens) (UniProt Q9NZI8)", "assay": "pulldown", "conditions": "RNA immunoprecipitation (FLAG then HA) and cDNA microarray, A549 cells", "values": [
      {"substance": "SMAD3 mRNA", "binding signal (fold IP/total RNA)": 720}
    ]}
  ]
}
